Measurements from article PMC3538848.

Assays:
[1] = biological target: A/Brisbane/10/2007 (H3N2) hemagglutinin ectodomain (influenza A virus A/Brisbane/10/2007 (H3N2)); assay: BLI
[2] = biological target: A/Panama/2007/1999 (H3N2) hemagglutinin ectodomain (influenza A virus A/Panama/2007/1999 (H3N2)); assay: BLI
[3] = biological target: A/Perth/16/2009 (H3N2) hemagglutinin ectodomain (influenza A virus A/Perth/16/2009 (H3N2)); assay: BLI
[4] = biological target: A/Brisbane/10/2007 (H3N2) hemagglutinin ectodomain (influenza A virus A/Brisbane/10/2007 (H3N2)); assay: ITC
[5] = biological target: A/Panama/2007/1999 (H3N2) hemagglutinin ectodomain (influenza A virus A/Panama/2007/1999 (H3N2)); assay: ITC
[6] = biological target: A/Perth/16/2009 (H3N2) hemagglutinin ectodomain (influenza A virus A/Perth/16/2009 (H3N2)); assay: ITC
[7] = biological target: A/Texas/36/1991 (H1N1) hemagglutinin ectodomain (influenza A virus A/Texas/36/1991 (H1N1))
[8] = biological target: A/Perth/16/2009 (H3N2) hemagglutinin ectodomain (influenza A virus A/Perth/16/2009 (H3N2)); assay: negative-stain EM, single-particle 3D reconstruction
[9] = biological target: A/Solomon Islands/3/2006 (H1N1) hemagglutinin ectodomain (influenza A virus A/Solomon Islands/3/2006 (H1N1)); assay: as above

## C05 Fab (recombinant, for binding studies)
[1]
  Kd: > 5000 nM
[2]
  Kd: 720 nM
[3]
  Kd: 18 nM
[4]
  Kd: 10000 nM
[5]
  Kd: 225 nM
[6]
  Kd: 26 nM

## C05 IgG (antibody)
[7]
  MIC, hemagglutination inhibition (HAI): > 100 µg/mL

## C05 Fab (Lys-C digestion of IgG)
[8]
  stoichiometry N: 3
[9]
  stoichiometry N: 3
